Experimental findings from US20230226096A1 (Orna Therapeutics, Inc., priority 2020, published 2023) are described below.

This data set concerns HEK293 cells. The format is cell-based, human. To be noted: luminescence from secreted Gluc in supernatant 24 hours after transfection of HEK293 cells; circular RNA encoding Gluc with the named IRES (UTR truncated to 675 nt).

B1: Ljungan Virus 87-012 (nucleic acid)
DNA: CTCATTGCCCACACCTGGTTGGTTCCCAGGTTCATACAATAACCATCAATAAACTTTTAACATCTAAGATAGTATTATCCCATACTAGACTGGACGAAGCCGCTTGGAATAAGTCTAGTCTTATCTTGTATGTGTCCTGCACTGAACTTGTTTCTGTCTCTGGAGTGCTCTACACTTCAGTAGGGGCTGTACCCGGGCGGTCCCACTCTTCACAGGAATCTGCACAGGTGGCTTTCACCTCTGGACAGTGCATTCCACACCCGCTCCACGGTAGAAGATGATGTGTGTCTTTGCTTGTGAAAAGCTTGTGAAAATCGTGTGTAGGCGTAGCGGCTACTTGAGTGCCAGCGGATTACCCCTAGTGGTAACACTAGCCTCTGGGCCCAAAAGGCATGTCATTTGACCACTCAGGTACACAACCCCAGTGATGCACACGCTTAGTAATGGCTTAGTAACAAACATTGATTGATCATTTGAAAGCTGTTAGGAGGTTTAGGTATGACGGGCTGAAGGATGCCCTGAAGGTACCCATAGGTAACCTTAAGCGACTATGGATCTGATCAGGGGCCCACCATGTAACACATGGGTAGAAGTCTTCGGACCTTGGGTTAAAAAACGTCTAGGCCCGCCCCCCACAGGGATGTGGGGTTTCCCTTATAACCCCAATATTGTATA
For the molecule B1, the Expression turned out to be 2.00E+06.

B2: Orivirus (nucleic acid, listed as Orivirus sp.)
DNA: GGTCCCAGGCCAATATTCTTCGTAAGGCTTGGTTCCAATTTTCCACCACTCGTGTTTGGGTTCTGGCCTATGGTACCCAGAGGGGCGGTTTGGGGGAATTAACTCCCCCTCCCCTGTGGTCCTATACCACCCCACACCTCTGTGGGCTTTCTTTACTATCTTCTTGTTTTCCGACTTTTAAACACTAGGCAGGCGCGCCTAGTCATACACCGCCCGGCTGGTCTTTCCAGCTCTTGTGGGCGGTGCGCGCTGGTCCATCGTGCCCAGCGACATAGCACCTTGTGGACACCTCCGAACGCCCTCCCCTGTATGGGGTGGTGCCCAGGGGTTTCAGTGTGGTGACACACTCCCTGGGGCCCGAAAGGCTAGTGTGCAACAGGTGAGGTACAGCCAGCTGCCCCCGTGGCTGGAGGGACCAAGCTTGTGAAGCACACCTCACCTTCTTGGGGGTGGGCTAGTAAGTGGTGAAAGCATAGTGTCCGTGTCGCTGGCCAACACTTTGGGTCAAGTCCAGCCACTCAGTGAGTAGATGCCCAGGAGGTACCCCTAGTGGATCTGACTTGGGGCCTGTTACTTAATGCAGGTTAAAAACTATGAAAGCTGAGTAGTGTAGCCCGGCTGGTGGCTTCTCTTCCTTATTCATTCTATTTTATGGTGACAAACGCAACTGAAGCC
As for B2, the Expression is given as 6.09E+05.

B3: HAV FH1 (nucleic acid)
DNA: CTTGATACCTCACCGCCGTTTGCCTAGGCTATAGGCTAAATTTCCCTTTCCCTGTCCTTTCCCTATTTCCTTTTGTTTTGTTTGTAAATATTAATTCCTGCAGGTTCAGGGTTCTTTAATCTGTTTCTCTATAAGAACACTCAATTTTCACGCTTTCTGTCTCCTTTCTTCCAGGGCTCTCCCCTTGCCCTAGGCTCTGGCCGTTGCGCCCGGCGGGGTCAACTCCATGATTAGCATGGAGCTGTAGGAGTCTAAATTGGGGACGCAGATGTTTGGGACGTCGCCTTGCAGTGTTAACTTGGCTTTCATGAACCTCTTTGATCTTCCACAAGGGGTAGGCTACGGGTGAAACCTCTTAGGCTAATACTTCTATGAAGAGATGCCTTGGATAGGGTAACAGCGGCGGATATTGGTGAGTTGTTAAGACAAAAACCATTCAACGCCGAAGGACTGGCTCTCATCCAGTGGATGCATTGAGGGAATTGATTGTCAGGGCTGTCTCTAGGTTTAATCTCAGACCTCTCTGTGCTTAGGGCAAACACTATTTGGCCTTAAATGGGATCCTGTGAGAGGGGGTCCCTCCATTGACAGCTGGACTGTTCTTTGGGGCCTTATGTGGTGTTTGCCTCTGAGGTACTCAGGGGCATTTAGGTTTTTCCTCATTCTTAAACAATA
modifications: Hepatovirus A
Turning to B3, the Expression is 1.24E+05.

B4: Halastavi arva (1x mut) (nucleic acid)
DNA: CTTGATTCTAACCTTGCCGTATGGTGCCCTAACGGGTTCATTTAATCATGCGATGAGGGTTGCTATACCGCATCCATTCTAAGGCGATTCAATGCTTCATTTAGGAATTTTGTTGACGATTAAAAGGTACCCCCACAAAAACAAAACCAATCTTACTTGATTTTCGTTTTAACTGACCACTGCGATCCCAAATTTTCGCCTTCTTATCAAAGTATGTTGTGTTCTTTGGGTGTACAACCTGAGAACTTGTCTACAACTACATATTACTCGAGGAAGAAATTCGGTTTAAGCCGTGCCTTCTCACGTTTAGTATATCTATCTGGACACACCTTCTTCATCTTCTAATCCCCATCTAGTCTCCTGATCAGAGACGTCGTTATTAACAAATAACCCCCCTTGTTAATAAGAGACAAAGTACAATCAAGCTAAGTTCTCTTGGAGTTCCTGTAGGAACTTAGCCATTGTGATAGAGTCATAAGTCTATGTGCATAGACAGCTCTAGCTCACCATTTCCTTCCCAACCCATCTTTTCATCAGCTTAACTCTATGAATCCGATGCAAAAACCATTCTAACATCTTATGGTGCTTTCCAAGCCAAATGAGAGCTCACTCTTTTGAGCCGCTATTTAATGGACAATAAACGTTTTATAGTGTACATCATATTGTAAAAACAAA
In the case of B4, the Expression was 9.46E+04.

B5: Parechovirus F (nucleic acid)
DNA: GGTCGGGGAGATGTGTTCATGATCGGTTAACACCATCATGGATCATCTCTCCCCGACCTCTTTTTGACCCAGCTATGGGTTAAATAGTACTTTTCTTTTCTCTTTTGCTTTCTTTTGTGTTTTGTTTGTTTTGCAACATATAACAAGCATTTTATCAGTATTAGTGTCTGCAACTGTATAACAAGCAAGGTGGAGCAATCATGCGAGTATATCTCAATTGAATTGTGACACACAAGTGTGCACTATGTGGAATAAATGCCATTTTGGCCAAACCTGGTTAGCCAGACCAGTAGTAGGACAATTTGGCACCCTTAGTGGGCGCGACCTAGATGCTAGGGATGAGCAAACCTATTTCCCCTGAGTACAGGGGCTCTCCTTCACCTCTACATTTTGGACCTCTTTTTGAGTATCCTCGATAGAAGGTGAAGTGACGGTGTACCGGATGGTTAATTGATCTCATTGCTGGGTGACAGCCCGCTAGGACCAGGCAGCATCTTTGTATGGACCTGTACATGTAAC
modifications: Parechovirus F
Molecule B5 returned an Expression of 6.56E+05.

B6: HAV HM175 (nucleic acid)
DNA: CGCCGTTTGCCTAGGCTATAGGCTAAATTTTCCCTTTCCCTTTTCCCTTTCCTATTCCCTTTGTTTTGCTTGTAAATATTGATTTGTAAATATTGATTCCTGCAGGTTCAGGGTTCTTAAATCTGTTTCTCTATAAGAACACTCATTTCACGCTTTCTGTCTTCTTTCTTCCAGGGCTCTCCCCTTGCCCTAGGCTCTGGCCGTTGCGCCCGGCGGGGTCAACTCCATGATTAGCATGGAGCTGTAGGAGTCTAAATTGGGGACACAGATGTTTGGAACGTCACCTTGCAGTGTTAACTTGGCTTTCATGAATCTCTTTGATCTTCCACAAGGGGTAGGCTACGGGTGAAACCTCTTAGGCTAATACTTCTATGAAGAGATGCCTTGGATAGGGTAACAGCGGCGGATATTGGTGAGTTGTTAAGACAAAAACCATTCAACGCCGGAGGACTGACTCTCATCCAGTGGATGCATTGAGTGGATTGACTGTCGGGGCTGTCTTTAGGCTTAATTCCAGACCTCTCTGTGCTTGGGGCAAACATCATTTGGCCTTAAATGGGATTCTGTGAGAGGGGATCCCTCCATTGCCAGCTGGACTGTTCTTTGGGGCCTTATGTGGTGTTTGCCGCTGAGGTACTCAGGGGCATTTAGGTTTTTCCTCATTCTTAAATAATA
modifications: Hepatovirus A
B6: the Expression was found to be 4.96E+05.

B7: Parechovirus D (nucleic acid)
DNA: ACATGGGGCAGGTGTGCTGTGCCAAGAGCAACACTACGGTGGCCGAGCCGATGGTTCGTCACCACGTAGTAGGACTCCGTAGTGCTTGGTTACGGCGGACGTAAGTCAGTTGAGTGATGTCTAAGTGGCAAACCATGAGTACATGGTAACCTTGTGTGGACTCGCGGGACGGAATTTCCTATCCCATTGACTCCTTGTAGCAAGGTGGGTATACCCAACCACAATGGCAGCACCCTGGGTGGGAACCCAGGGGCCTGGATTAGTATCCAGTCACACAGCCTGATAGGGTGGCGGCTCAGCCACTGACCAGCGTCTCTAAATAATTGTGAGCTGTTCATGCACC
modifications: Parechovirus D
B7 had an Expression of 3.10E+05.

B8: Parechovirus A2 (nucleic acid, listed as Parechovirus sp.)
DNA: GCCGTCGGGCCTTACACCCCGACTTGCTGAGTTTCTCTAGGAGAGTCCCTTTCCCAGCCAGAGGTGGCTGGTCAAACAATACCAAACGTAACTAAACATCTAAGATAACATAGCCCTATGCCTGGTCTCCACCAGTTGAAGGCATCTTGCAATAAAATGGGTGGATTAAGACGCTTAAAGCATGGAGTCAATTATCTTTTCTAACTAGTGATCTTCACTGGGTGGCAGATGGCGTGCCATAACTCTATTAGTGGGATACCACGCTCGTGGATCTTATGCCCACACAGCCATCCTCTAGTAAGTTTGCAAGGTGTCTGATGAGGCGTGGGAACTTATTGGAAATAATTACTTGCTGCGAAGCATCCTACTGCCAGCGGATCAACACCTGGTAACAGGTGCCCCTGGGGCCAAAAGCCACGGTTTAACAGACCCTTTAGGATTGGTTAAAACCTGAGTAATTATGGAAGATACTTAGTACCTACCAACTTGGTAACAGTGCAAACACTAGTTGTAAGGCCCACGAAGGATGCCCAGAAGGTACCCGCAGGTAACAAGAGACACTGTGGATCTGATCTGGGGCCACCTACCTCTATCCTGGTGAGGTGGTTAAAAAACGTCTAGTGGGCCAAACCCAGGGGGGATCCCTGGTTTCCTTATTTTAGTGTAAATGTCATT
For the molecule B8, the Expression turned out to be 1.80E+07.

B9: Parechovirus C (nucleic acid)
DNA: CGGTCATCCCCCTTTCCCCACAGCCGGTGTGGGTTCTAATCGGCTCCTACTAAACACCTAAGCATCACTGCGCCTCTATCTCTCCTATCCACAGGTCTAAGACGCTTGGAATAAGACATGTGGGTGCAATAGGAAGATTAGCTAGTCCAATCTCTCCTTCCAGCTACGCTTCTCCCTTCGATGAGCGTAGGGGGGGCCCCCACCTCCCTCATCTCTGGATAGGGCTCTTGCTACGGGGCTTTCCCGTCTGGACCAGCAGGCCCACTGGTGCGCTTCCATTCAAGTTTAGTGTGCATTACTGTCTGAAATATTGCTTTGCTAGGATCTAGTGTAGCGACCTGCATATTGCCAGCGGACTTCCCCACATGGTAACATGTGCCTCTGGGCCCAAAAGGCATGTCTTTGACCGTATGCAGTACAACCCCAGTATAGGTCCTTTCTATGGCAGTATGGATCTCAGTGATGAGTCTATACAGAATATGGAAGTGGTTCGGATATGTCAGCCCGAAGGATGCCCAGAAGGTACCCGCAGATAACCTTAAGAGACTGTGGATCTGATCTGGGGCCCACCACCTTCGGGTGGGTAGAAGCTAACCATGCCTTGGGTTAAAAAACGTCTAAGGGCTGACCAGACCCGGGGGATCCGGGTTTTCCCTATCTTGACCTACTCTAATC
modifications: Parechovirus C
On to B9, for which the Expression is recorded as 1.24E+06.
